Stoichiometry N data for one substance are collected here from paper doi:10.1101/2023.04.09.536162.

One may read the stoichiometry N as a count of units in the complex or per binding partner.

The assay concerns the target L-threonine aldolase from Neptunomonas marine (NmLTA), wild type (Neptunomonas marine). As to the kind of experiment: crystal structure.

The substance “L-threonine aldolase from Neptunomonas marine (NmLTA), wild type (enzyme)” had a stoichiometry N of 4.
